This passage reports protein stability index results from the supplement of paper PMC10724198.

± gives the standard deviation of the averaged measurements.
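Note: PSI is a weighted mean of sequencing reads over stability bins, variants kept only with over 10 reads, mCherry proximal and sfGFP distal, peptide attached via GGGS linker.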

The test system of this series is Saccharomyces cerevisiae. The series is described as follows: protein stability index of tFT-peptide fusion (C-terminal peptide) (PSI (0-1 scale)); higher = more stable (slower turnover). The conditions noted are these: genetic background: wild type; temperature: 30 C.
As for RFPLLAPPRPLP, the protein stability index worked out at 0.7318 ± 0.0043. As for RFPLLPLLRPPP, the protein stability index is 0.6494 ± 0.0031. RFPPPPPPPPLL yielded a protein stability index of 0.718 ± 0.078. With RFSLGLIFLPSL the figure was 0.68 ± 0.044. Next, RFSYFPALFFPS: 0.678 ± 0.043; RFVDLASFLTFR: 0.587 ± 0.031.

On to RGAEACGGVPGQ, for which the protein stability index was 0.671 ± 0.024. With RGAKKMNHRGRS the figure was 0.675 ± 0.052. Next, RGDHPAAGFPCG: 0.686 ± 0.033. Next, RGFVVGGGGWLG: 0.706 ± 0.051; RGGAGGRKVSVG: 0.651 ± 0.05; RGGAGGRLGCGG: 0.71 ± 0.071. The sequence RGGGFIGSFFMG showed a protein stability index of 0.751 ± 0.15. For RGGGGAWAGGVA, the protein stability index was 0.734 ± 0.019. Sequence RGGGGGEWGEQR displayed a protein stability index of 0.702 ± 0.046. With RGGGGGSVSFWW the figure was 0.676 ± 0.071; with RGGGGPTVEDRR, 0.681 ± 0.007.

RGGGGRGGSEGS yielded a protein stability index of 0.686 ± 0.017. With RGGPPPPPSITL the figure was 0.851 ± 0.12.

RGGSVGRGRLCL returned a protein stability index of 0.643 ± 0.014. In the case of RGHLPPIGLTRH, the protein stability index worked out at 0.675 ± 0.013. Next, RGILGAGGAGRG: 0.744 ± 0.079; RGKATREAGKKR: 0.7916 ± 0.0028. Turning to RGLLLSRRWFSP, the protein stability index was found to be 0.641 ± 0.099. On to RGPPGVPGSDML, for which the protein stability index was determined as 0.673 ± 0.023.

RGPSGARRQPGL had a protein stability index of 0.6658 ± 0.0044. With RGRAGPVVRELT the figure was 0.646 ± 0.097. RGRGEVRGVGGG displayed a protein stability index of 0.698 ± 0.067. For the sequence RGRRGAGTGRGP, the protein stability index came out at 0.657 ± 0.019. With RGRSVEGSRGGW the figure was 0.6781 ± 0.0048. RGRWGGGRVVRG: the protein stability index was found to be 0.6944 ± 0.0062.

In the case of RGSGCAFLFAWF, the protein stability index came out at 0.654 ± 0.092. For RGSPDRPGGPLP, the protein stability index was 0.7322 ± 0.0028. With RGTGPPGALREE the figure was 0.653 ± 0.046; with RGVCVGGGCWLV, 0.624 ± 0.034; with RGWGGGRVAREC, 0.657 ± 0.026. Next, RGWWVLCGGGGG: 0.57 ± 0.044. Next, RGWWVRGGVLWC: 0.677 ± 0.048; RGYSGSLSVVIY: 0.657 ± 0.057; RGYVNVWTRLGN: 0.717 ± 0.043.

RHENKKDKIRME: the protein stability index is 0.701 ± 0.11. RHKLYPRIVLNR gave a protein stability index of 0.699 ± 0.055. With RHLPPAPAPRFI the figure was 0.717 ± 0.2.

RHPPPPPPALTP had a protein stability index of 0.707 ± 0.054. With RHSLPSPPAFCL the figure was 0.723 ± 0.0092; with RHTARQSTTWRG, 0.695 ± 0.071; with RIAAVRVEGRDD, 0.708 ± 0.026. With RIADSLTPAHPA the figure was 0.699 ± 0.023; with RIEIVDVQFLWE, 0.7 ± 0.048. RIEKNTKRSEIW displayed a protein stability index of 0.665 ± 0.021. Next, RIHAVINLLMND: 0.651 ± 0.039.

RIKAKKNKTMKR displayed a protein stability index of 0.655 ± 0.021.

As to RIKRTMNEKIRK, the protein stability index came to 0.68 ± 0.0041. For RIPSKSHAWVLV, the protein stability index was found to be 0.483 ± 0.058. With RITTNQMNIKFI the figure was 0.653 ± 0.02; with RIWKKKRYNEKS, 0.681 ± 0.12. RKASQEQYHQRH yielded a protein stability index of 0.648 ± 0.05. As to RKCHCPGGGRRI, the protein stability index came to 0.7171 ± 0.00079. As to RKDEKRGTVIIA, the protein stability index is 0.62 ± 0.021. The sequence RKGHKSNRSKNE had a protein stability index of 0.705 ± 0.03.

RKINKQKRTKEE returned a protein stability index of 0.6449 ± 0.0023. Next, RKKEKKQKKKKG: 0.688 ± 0.043. Next, RKKIRKNITQQP: 0.692 ± 0.052; RKKKKKNKNEKE: 0.713 ± 0.04; RKKKNRKERQKK: 0.6725 ± 0.00086. Next, RKKPRKLRETDN: 0.649 ± 0.053; RKLNEKTRYKRR: 0.7788 ± 0.003; RKMYRIKKEIKI: 0.641 ± 0.098. As to RKNTSRESGLTR, the protein stability index was determined as 0.632 ± 0.026. Consider RKSDGMKSCLMG, for which the protein stability index worked out at 0.684 ± 0.016. Next, RKYEKEKYKKMI: 0.566 ± 0.013; RLAPWATGVRMW: 0.6759 ± 0.0016.

RLDAGASAAFKG displayed a protein stability index of 0.7184 ± 0.00093. Next, RLGCGFGGGEEV: 0.674 ± 0.032; RLGDALCFSFTV: 0.644 ± 0.032. With RLGGGGCVWVRG the figure was 0.683 ± 0.027; with RLGIADHEYPCE, 0.673 ± 0.011. With RLGVWVWGFTPG the figure was 0.742 ± 0.082; with RLGWTTSEELWC, 0.657 ± 0.029; with RLLSPPPPPPPV, 0.701 ± 0.071.
